The chains are these.
B1: Rab32FL:GDP (full-length Rab32, residues 1-225, GDP-bound) (natural protein)
chain: MAGGGAGDPGLGAAAAPAPETREHLFKVLVIGELGVGKTSIIKRYVHQLFSQHYRATIGVDFALKVLNWDSRTLVRLQLWDIAGQERFGNMTRVYYKEAVGAFVVFDISRSSTFEAVLKWKSDLDSKVHLPNGSPIPAVLLANKCDQNKDSSQSPSQVDQFCKEHGFAGWFETSAKDNINIEEAARFLVEKILVNHQSFPNEENDVDKIKLDQETLRAENKSQCC
notes: also called Rab32:GDP; Rab32_(1-225); source: E. coli BL21(DE3)-RIL, purified (Ni-IMAC, TEV cleavage, second IMAC, SEC)
B3: GtgE_(FL,C45A) (full-length catalytically inactive GtgE, residues 1-228) (enzyme)
chain: MLRHIQNSLGSVYRSNTATPQGQIIHHRNFQSQFDTTGNTLYNNAWVCSLNVIKSRDGNNYSALEDITSDNQAFNNILEGIDIIECENLLKEMNVQKIPESSLFTNIKEALQAEVFNSTVEDDFESFISYELQNHGPLMLIRPSLGSECLHAECIVGYDSEVKKVLIYDSMNTSPEWQSNIDVYDKLTLAFNDKYKNEDCSICGLYYDGVYEPKPLHSSSWKDWCTIL
notes: source: E. coli BL21(DE3)-RIL, purified (Ni-IMAC, TEV cleavage, second IMAC)

For assay [1], the target named is T1, Rab32_1-225:GDP:GtgE1-228,C45A complex (Homo sapiens, UniProt Q13637).
T1 construct: gene RAB32; full-length Rab32 and full-length GtgE C45A, E. coli, His6-MBP tag cut by TEV, reductively lysine-methylated complex, 1:1 heterodimer; with Cysteine protease GtgE (Salmonella enterica serovar Typhimurium SL1344)
T1 sequence (Q6EAT3 entry or part of it C45A, one chain of several): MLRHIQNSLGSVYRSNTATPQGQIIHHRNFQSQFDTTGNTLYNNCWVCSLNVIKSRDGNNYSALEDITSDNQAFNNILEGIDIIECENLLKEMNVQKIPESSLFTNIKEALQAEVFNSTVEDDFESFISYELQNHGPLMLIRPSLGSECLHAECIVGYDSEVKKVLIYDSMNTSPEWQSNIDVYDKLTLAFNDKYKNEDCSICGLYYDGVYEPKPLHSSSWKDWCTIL
Nature of the assay: X-ray crystallography, […] Å. Format: binding. Conditions: nucleotide site of Rab32; crystals from 0.05 M imidazole pH 8, 20% PEG 6000.

Assay [2] deals with T2, Rab32FL (Homo sapiens, UniProt Q13637).
T2 construct: gene RAB32; full length, E. coli, N-terminal His6-MBP tag cut by TEV, monomer by SEC
T2 sequence (Q13637 1-225): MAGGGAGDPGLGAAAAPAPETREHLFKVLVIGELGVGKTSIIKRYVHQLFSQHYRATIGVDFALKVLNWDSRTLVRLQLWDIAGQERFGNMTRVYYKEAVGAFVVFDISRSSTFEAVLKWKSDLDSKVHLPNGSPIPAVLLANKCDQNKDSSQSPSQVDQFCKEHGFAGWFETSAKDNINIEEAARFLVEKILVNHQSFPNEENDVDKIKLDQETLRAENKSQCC
Nature of the assay: intrinsic GTP hydrolysis, ion-pairing RP-HPLC of nucleotide content. Format: biochemical. The following applies: intrinsic GTPase, no GAP; single-exponential fit.

For assay [3], the target named is B3. In words: ITC. The following applies: both partners purified.
The target of assay [4] is B3. Nature of the assay: AUC. The following applies: both partners purified.
For assay [5], the target named is B1. In words: ITC. The following applies: both partners purified.
Assay [6] concerns the target T3, GtgE_(21-214,C45A) (truncated inactive GtgE, lysine-methylated, for crystallization) (Salmonella enterica serovar Typhimurium …, UniProt Q6EAT3 21-214, C45A, surface exposed lysine residues reductively methylated).
T3 construct: source: E. coli BL21(DE3)-RIL, purified; complex reductively methylated
T3 sequence: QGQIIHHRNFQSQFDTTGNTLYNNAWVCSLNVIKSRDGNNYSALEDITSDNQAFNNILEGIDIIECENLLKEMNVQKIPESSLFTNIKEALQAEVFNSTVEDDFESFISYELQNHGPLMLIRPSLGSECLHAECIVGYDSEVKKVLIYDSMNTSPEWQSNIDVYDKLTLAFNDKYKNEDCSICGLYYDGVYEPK
Nature of the assay: crystal structure. The following applies: both partners purified.

Results on six molecules are retold here after article PMC5752668 (Nature Communications, 2018).

On to `Nc1nc2c(ncn2[C@@H]2O[C@H](COP(=O)(O)OP(=O)(O)O)[C@@H](O)[C@H]2O)c(=O)[nH]1` [GDP], for which the “X-ray crystallography, 2.9 Å” value in assay [1] is “The full-length Rab32:GDP:GtgEC45A structure was solved by molecular replacement”.

Turning to `Nc1nc2c(ncn2[C@@H]2O[C@H](COP(=O)(O)OP(=O)(O)OP(=O)(O)O)[C@@H](O)[C@H]2O)c(=O)[nH]1` [GTP], the k hydr result in assay [2] was “Rab32 has an exceptionally slow intrinsic GTPase-activity with an hydrolysis constant determined”.

Regarding B1, the Kd in assay [3] worked out at 96 nM.

B2: Rab32FL-Atto488 (Rab32:GDP labelled at thiol groups with Atto488-Maleimide) (natural protein)
chain: MAGGGAGDPGLGAAAAPAPETREHLFKVLVIGELGVGKTSIIKRYVHQLFSQHYRATIGVDFALKVLNWDSRTLVRLQLWDIAGQERFGNMTRVYYKEAVGAFVVFDISRSSTFEAVLKWKSDLDSKVHLPNGSPIPAVLLANKCDQNKDSSQSPSQVDQFCKEHGFAGWFETSAKDNINIEEAARFLVEKILVNHQSFPNEENDVDKIKLDQETLRAENKSQCC
modifications: thiol groups covalently labeled with Atto488-Maleimide
notes: also called Rab32:GDP_(fluor.); fluorescently labeled Rab32FL:GDP; source: E. coli BL21(DE3)-RIL, purified, then labelled with Atto488-Maleimide
B2: the Kd in assay [4] stood at 118 nM.

With B3, the “stoichiometry N” value in assay [5] came out at 1.

B4: Rab32_(18-201):GDP (truncated Rab32, lysine-methylated, for crystallization) (domain or fragment)
chain: APETREHLFKVLVIGELGVGKTSIIKRYVHQLFSQHYRATIGVDFALKVLNWDSRTLVRLQLWDIAGQERFGNMTRVYYKEAVGAFVVFDISRSSTFEAVLKWKSDLDSKVHLPNGSPIPAVLLANKCDQNKDSSQSPSQVDQFCKEHGFAGWFETSAKDNINIEEAARFLVEKILVNHQSFPN
notes: source: E. coli BL21(DE3)-RIL, purified; complex reductively methylated
As to B4, the binding result in assay [6] was “binds”.
